{
  "source": "paper PMC3388944",
  "binders": {"B1": {"name": "wtIEBS probe (IE promoter -16 to +22) (dsDNA)", "DNA 1": "TTGCTTACCCATCGTAGCATCGCGGACTAGAGAGCCTT", "DNA 2": "TTAAGGCTCTCTAGTCCGCGATGCTACGATGGGTAAGC"}},
  "biological_target": "T1, GST-IE(1-1487) (immediate-early protein IEP, full length) (Equine herpesvirus 1, UniProt P17473 1-1487)",
  "T1 sequence": "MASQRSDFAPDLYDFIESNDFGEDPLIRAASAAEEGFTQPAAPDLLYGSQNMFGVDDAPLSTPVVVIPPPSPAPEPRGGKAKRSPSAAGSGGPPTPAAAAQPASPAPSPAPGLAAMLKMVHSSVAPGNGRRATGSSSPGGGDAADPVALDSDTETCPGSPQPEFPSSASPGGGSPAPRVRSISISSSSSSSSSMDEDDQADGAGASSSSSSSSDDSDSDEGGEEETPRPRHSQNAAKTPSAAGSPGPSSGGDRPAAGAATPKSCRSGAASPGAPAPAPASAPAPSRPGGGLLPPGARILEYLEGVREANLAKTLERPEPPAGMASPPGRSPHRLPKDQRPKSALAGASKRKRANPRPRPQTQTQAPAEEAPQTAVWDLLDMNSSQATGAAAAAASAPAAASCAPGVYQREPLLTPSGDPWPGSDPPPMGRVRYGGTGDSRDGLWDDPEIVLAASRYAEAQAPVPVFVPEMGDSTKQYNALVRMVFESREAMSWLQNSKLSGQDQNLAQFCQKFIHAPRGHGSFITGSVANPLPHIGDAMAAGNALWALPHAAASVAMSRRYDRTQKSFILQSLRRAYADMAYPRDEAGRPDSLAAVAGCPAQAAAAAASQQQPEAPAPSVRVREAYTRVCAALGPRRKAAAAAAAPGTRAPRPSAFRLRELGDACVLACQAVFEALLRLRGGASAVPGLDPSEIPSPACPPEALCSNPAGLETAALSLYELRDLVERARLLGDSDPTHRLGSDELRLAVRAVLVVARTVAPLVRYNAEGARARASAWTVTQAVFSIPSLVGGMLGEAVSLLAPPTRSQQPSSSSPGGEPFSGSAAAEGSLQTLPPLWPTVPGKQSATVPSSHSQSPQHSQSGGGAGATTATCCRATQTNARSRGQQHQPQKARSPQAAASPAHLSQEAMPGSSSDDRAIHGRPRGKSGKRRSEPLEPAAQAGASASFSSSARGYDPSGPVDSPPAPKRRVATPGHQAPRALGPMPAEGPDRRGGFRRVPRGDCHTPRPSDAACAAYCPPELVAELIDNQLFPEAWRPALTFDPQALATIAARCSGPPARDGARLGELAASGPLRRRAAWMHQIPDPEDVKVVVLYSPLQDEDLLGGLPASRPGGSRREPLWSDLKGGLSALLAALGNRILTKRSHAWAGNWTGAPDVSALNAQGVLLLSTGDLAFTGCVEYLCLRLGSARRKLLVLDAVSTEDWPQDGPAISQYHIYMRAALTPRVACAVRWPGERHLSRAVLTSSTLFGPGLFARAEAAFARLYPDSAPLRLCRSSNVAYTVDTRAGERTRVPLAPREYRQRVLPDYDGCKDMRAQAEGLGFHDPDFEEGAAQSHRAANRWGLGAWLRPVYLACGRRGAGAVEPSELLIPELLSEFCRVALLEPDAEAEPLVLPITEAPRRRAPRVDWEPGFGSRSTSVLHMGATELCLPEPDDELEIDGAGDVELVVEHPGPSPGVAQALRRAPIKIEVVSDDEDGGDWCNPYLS",
  "test": "EMSA",
  "data": [
    {"binder": "B1", "values": [
      {"measurement": "binding result", "value": "binds"}
    ]}
  ]
}
